# Target: the molecule itself
# Experiment: crystal structure
protein,measurement,value
"human LDHC L56E/I332Q double mutant (LDHC-mutant), recombinant with C-terminal His6-tag (enzyme) not shown",stoichiometry N,4
